Experiment: yeast display, Sf9 membrane polyspecificity reagent, FACS + sequencing; frameworks hold sequencing errors
Summary of the method: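 In a synthetic yeast display library (Saccharomyces cerevisiae BJ5465), nanobody expression was induced with galactose for 36–48 hours. FACS gates were set low and high (top ~1%) using anti-HA fluorescence for expression and streptavidin fluorescence for binding of the Sf9 membrane reagent. Each polyreactivity label is drawn from the gate of origin.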

Sequence	polyreactivity (PSR sort gate)
QVQLVESGGGLVQAGGSLRLSCAASGSTFTSYAMGWYRQAPGKERELVAAISKSGGSTYYADSVKGRFTISRDNAKNTVSLQMNSLKPEDSAVFYCAARYIVRSYSTSRFDYWGQGTQVTVSS	low polyreactivity
QVQLVESGGGLVQAGGSLRLSCAASGSTFTSYTMGWYRQAPGKERELVARITRGGGSTYYADSVKGRFTISRDNAKNTVYLQMNSLKPEDTRSSPVLSYDYWGQGTQVTVSS	low polyreactivity
QVQLVESGGGLVQAGGSLRLSCAASGSTFTSYTMGWYRQAPGKERELVARNTRGGGSTYYADSVKGRFTISRDNAKNTVYLQMNSLKPEDTAVYYCAKQVVGRAYYSWGQGTQVTVSS	low polyreactivity
QVQLVESGGGLVQAGGSLRLSCAASGSTFTTNVMGWYRQAPGKERELVAAISWSSGSTYYADSVKGRFTISRDNAKNTVSLPMNSLKPEDTAVYYCAARQVIFYPYSRYYYWGQGTQVTVSS	high polyreactivity
QVQLVESGGGLVQAGGSLRLSCAASGSTFTTYAMGWYRQAPGKERELVAAITVDGGGTYYADSVKGRFTISRDNAKNTVYLQMNSLKPVDTAVYYCAAVTKLGYPPVNHLEDDYWGQGTQVTVSS	low polyreactivity
QVQLVESGGGLVQAGGSLRLSCAASGSTFTTYGMGWYRQAPGKERELVAGITFRGGSTYYADSVKGRFTISRDNAKNTVYLQMNSLKPEDTAVYYCAAERWRWYYSWTMDYWGQGTQVTVSS	high polyreactivity
QVQLVESGGGLVQAGGSLRLSCAASGSTFTVNGMGWYRQAPGKERELVAAITWSGGSTYYADSVKGRFTISRDTAKNTVYLQMNSLKPEDTAVYYCAADENLYITGYDYWGQGTQVNVSS	low polyreactivity
QVQLVESGGGLVQAGGSLRLSCAASGSTFTVYAMGWYRQAPGKEREFVAAITPSGASTYYADSVKGRFTISRDNAKNTVYLQMNSLKPEDTAVYYCNARSRTGYTNRMYYWGQGTQVTVSS	high polyreactivity
QVQLVESGGGLVQAGGSLRLSCAASGSTFTVYAMGWYRQAPGKERELVAAISESGTSTYYADSVKGRFTISRDNAKNTVYLQMNSLNPEDTAVYYCAADGPGTSEDDYWGQGTQVTVSS	high polyreactivity
QVQLVESGGGLVQAGGSLRLSCAASGSTFTWNAMGWYRQAPGTERELVAAITSGGRTYYADSVKGRFTISRDNAKNTVYLQMNSLKPEDTAVYYCAAKVRQYYSACNYYYWGQVTQVTVSS	high polyreactivity
QVQLVESGGGLVQAGGSLRLSCAASGSTFTWNDMGRYRQAPGKERELVAGISLSAGSTYYADSVKGRFTISRDNAKNTDYLQMNSLKPEDTAVYYCNADPGGPDTYEEHDYWGQGTQVTVSS	low polyreactivity
QVQLVESGGGLVQAGGSLRLSCAASGSTFTWYAMGWYRQAPGKERELVADISYGGGSTYYADSVKGRFTISRDNAKNTVYLQMNSLKPEDTAVYYCAAESIPYYSYDYWGQGTQVTVSS	low polyreactivity
QVQLVESGGGLVQAGGSLRLSCAASGSTFTYNAMGWYRQAPGKERELVAAIRSNGGSTYADSVKGRFTISRDNAKNTVYLQMNCLKPEDTAVYYWAARWRDYYRWGSRGGYGYWGQGTQVTVSS	high polyreactivity
QVQLVESGGGLVQAGGSLRLSCAASGSTFTYYAMGWYRKAPGKETELVAAIDFSGTSTYYADSVKGRFTISRDNAQNTVYLKMNSLKPEDTSVYYCAASQSWYWGGAHDNGEFGYWGQGTQVTVSS	low polyreactivity
QVQLVESGGGLVQAGGSLRLSCAASGSTFTYYAMGWYRQAPGKERELVAAINYSGGSTYYADSVKGRFTISRDNAKNTVYLQMNSLKPEDTAVYYCAADGYIRQYVTYYYWGQGTQVTVSS	low polyreactivity
QVQLVESGGGLVQAGGSLRLSCAASGSTFTYYAMGWYRQAPGKERELVAAISSNGGSTSYADSVKGRFTISRDNAKNTVYLPMNRLKPEDTAVYYCAVYKWSTRVSQYRYDYWGQGTQVTVSS	high polyreactivity
QVQLVESGGGLVQAGGSLRLSCAASGSTFTYYAMGWYRQAPGKERELVASISGSGSRTYYADSVKGRFTISRDTAKNTVYLQMNSLTPEDTAVYSCAARFYVRWYYYGSYANYWGQGTQVTVSS	high polyreactivity

Source: the nanobody polyreactivity screen of Harvey et al. (2022)
